Assay results from PMC2857867.

Target: VACV strain WR IFNα/βBP B18 (vaccinia virus strain Western Reserve), P25213
Assay: SPR
Conditions: remark: other sources report otherwise

B1: hIL-29, Q8IU54 20-200 (ligand)
chain: GPVPTSKPTTTGKGCHIGRFKSLSPQELASFKKARDALEESLKLKNWSCSSPVFPGNWDLRLLQVRERPVALEAELALTLKVLEAAAGPALEDVLDQPLHTLHHILSQLQACIQPQPTAGPRPRGRLHHWLHRLQEAPKKESAGCLEASVTFNLFRLLTRDLKYVADGNLCLRTSTHPEST
Kd: 13.5 nM | kon: 193000 M⁻¹ s⁻¹
